Measurements taken from patent US20240067738A1 (ELANCO US, published 2024).
Positions count from the first letter of the chain named. Values belong to the binder of their own block, whether it stands above or below them.

Assays:
[1] = biological target: T1, canine IL4R (Examples 16, 18 and 19; construct not stated) (canine, biotinylated; sites not stated); experiment: method not stated
T1 construct: also called Biotinylated canine IL4R; canine IL4R extracellular domains
T1 chain: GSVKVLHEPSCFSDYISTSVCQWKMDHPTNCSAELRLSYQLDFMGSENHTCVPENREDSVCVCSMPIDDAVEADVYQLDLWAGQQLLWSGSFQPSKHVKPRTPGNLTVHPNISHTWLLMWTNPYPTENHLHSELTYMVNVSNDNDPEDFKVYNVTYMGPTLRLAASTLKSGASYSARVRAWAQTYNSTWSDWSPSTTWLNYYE

[2] = biological target: T1, canine IL4R (Examples 16, 18 and 19; …); experiment: BLI (ForteBio OctetRed), biotinylated canine IL4R on streptavidin tip
[3] = biological target: T2, Canine IL4R-ECD_C-HuFc_His6 (processed) (canine); experiment: Western blot
T2 construct: Whole construct (ECD, linker, human Fc, His6) is one entry

[4] = biological target: Human IL4R-ECD_C-HuFc_His6 (processed) (human); experiment: Western blot
Human IL4R-ECD_C-HuFc_His6 (processed) (human), sequence (chain, as listed by the source limits assumed): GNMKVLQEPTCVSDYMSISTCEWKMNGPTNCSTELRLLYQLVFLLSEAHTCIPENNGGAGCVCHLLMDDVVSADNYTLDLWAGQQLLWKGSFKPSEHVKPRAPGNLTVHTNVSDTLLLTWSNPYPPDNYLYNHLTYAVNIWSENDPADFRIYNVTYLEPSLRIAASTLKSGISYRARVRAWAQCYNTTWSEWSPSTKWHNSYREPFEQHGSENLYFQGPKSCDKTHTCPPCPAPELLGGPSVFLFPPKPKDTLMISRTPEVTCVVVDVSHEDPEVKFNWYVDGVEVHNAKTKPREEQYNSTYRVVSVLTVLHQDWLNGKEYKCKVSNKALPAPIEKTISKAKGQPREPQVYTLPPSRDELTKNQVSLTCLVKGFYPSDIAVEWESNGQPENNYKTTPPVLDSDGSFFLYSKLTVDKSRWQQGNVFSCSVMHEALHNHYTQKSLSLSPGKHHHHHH

[5] = biological target: T1, canine IL4R (Examples 16, 18 and 19; …); experiment: BLI (ForteBio OctetRed)
[6] = biological target: T3, Canine IL4R-ECD_C-His6 (processed) (canine, biotinylated through amine chemistry; sites not stated); experiment: BLI (Octet), biotinylated IL4R-ECD_C-His6 on streptavidin tips, 1:1 fit
T3 construct: Whole construct (ECD, linker, His6) is one entry; Captured biotinylated on streptavidin tips or wells
T3 chain: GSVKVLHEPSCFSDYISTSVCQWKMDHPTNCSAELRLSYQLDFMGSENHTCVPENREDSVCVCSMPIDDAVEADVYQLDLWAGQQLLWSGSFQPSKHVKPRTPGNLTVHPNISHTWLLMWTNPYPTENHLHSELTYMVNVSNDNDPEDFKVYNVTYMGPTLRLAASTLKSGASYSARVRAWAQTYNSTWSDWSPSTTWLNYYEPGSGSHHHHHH
Experimental: The binding analysis was performed using an Octet Biosensor as follows. Briefly, canine IL4R-ECD_C-His6 (SEQ ID NO: 107) was biotinylated through amine chemistry. The free unreacted biotin was removed by extensive dialysis. Biotinylated canine IL4R-ECD_C-His6 was captured on streptavidin sensor tips. The association of either Clone B or I antibody and canine IL4R-ECD_C-His6 (25 μg/mL) was monitored for 600 seconds. Dissociation was monitored for 600 seconds. A buffer only blank curve was subtracted to correct for any drift. The data were fit to a 1:1 binding model using ForteBio™ data analysis software to determine the kₒₙ, koff, and the Kd. The buffer for dilutions and all binding steps was 20 mM phosphate, 150 mM NaCl, pH 7.2.

[7] = biological target: T2, Canine IL4R-ECD_C-HuFc_His6 (processed); experiment: BLI (Octet), IL4R-ECD_C-HuFc_His6 on anti-human Fc tips
Experimental: An alternative binding assay was performed also using an Octet Biosensor. Canine IL4R-ECD_C-HuFc_His6 (SEQ ID NO: 109) was captured on anti-human Fc-bound sensor tips. The association of either Clone B or I antibody and canine IL4R-ECD_C-HuFc_His6 was monitored for 600 seconds. Dissociation was monitored for 600 seconds. The buffer for dilutions and all binding steps was 20 mM phosphate, 150 mM NaCl, pH 7.2. […] In addition, amine conjugation may affect the affinity of canine IL4R-ECD_C-His6 to interact with Clone B and I antibodies.

[8] = biological target: T4, Canine/Human IL4R-ECD_C-HuFc_His6 Hybrid 6 (canine/human hybrid); experiment: Western blot, non-reducing
T4 construct: Canine G1-N55 and P110-P204; human N56-H109
T4 sequence (chain, as listed by the source limits assumed): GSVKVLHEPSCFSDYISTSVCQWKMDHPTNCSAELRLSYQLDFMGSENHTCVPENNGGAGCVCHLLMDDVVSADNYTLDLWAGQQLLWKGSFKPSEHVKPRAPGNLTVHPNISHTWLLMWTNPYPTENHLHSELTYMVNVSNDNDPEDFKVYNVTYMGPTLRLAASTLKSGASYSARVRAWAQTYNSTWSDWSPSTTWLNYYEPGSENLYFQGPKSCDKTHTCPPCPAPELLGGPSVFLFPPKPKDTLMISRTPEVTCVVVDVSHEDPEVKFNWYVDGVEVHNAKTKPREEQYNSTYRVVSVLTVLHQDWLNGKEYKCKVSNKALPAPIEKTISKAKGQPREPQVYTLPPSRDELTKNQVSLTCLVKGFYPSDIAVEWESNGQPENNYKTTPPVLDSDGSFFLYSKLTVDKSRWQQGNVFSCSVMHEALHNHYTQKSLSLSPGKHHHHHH

[9] = biological target: T5, Canine/Human IL4R-ECD_C-HuFc_His6 Hybrid 13 (canine/human hybrid); experiment: Western blot, non-reducing
T5 construct: Canine G1-S89 and P110-P204; human G90-H109
T5 sequence (chain, as listed by the source limits assumed): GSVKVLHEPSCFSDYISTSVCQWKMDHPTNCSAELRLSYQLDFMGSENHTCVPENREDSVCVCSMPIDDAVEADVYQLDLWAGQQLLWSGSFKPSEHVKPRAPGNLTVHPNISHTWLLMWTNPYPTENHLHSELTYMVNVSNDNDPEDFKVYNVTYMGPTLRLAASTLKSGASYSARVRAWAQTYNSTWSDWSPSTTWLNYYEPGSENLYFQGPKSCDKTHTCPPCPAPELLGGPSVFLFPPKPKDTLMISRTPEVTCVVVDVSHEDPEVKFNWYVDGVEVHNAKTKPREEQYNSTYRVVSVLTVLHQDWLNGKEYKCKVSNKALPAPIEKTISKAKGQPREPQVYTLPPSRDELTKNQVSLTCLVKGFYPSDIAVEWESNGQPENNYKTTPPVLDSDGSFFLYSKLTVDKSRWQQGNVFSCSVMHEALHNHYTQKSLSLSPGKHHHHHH

[10] = biological target: T6, Canine/Human IL4R-ECD_C-HuFc_His6 Hybrid 1 (canine/human hybrid); experiment: Western blot, non-reducing
T6 construct: Canine G1-N55, human N56-H209, human Fc-His6; Tested as 3-fold concentrated 293 supernatant
T6 sequence (chain, as listed by the source limits assumed): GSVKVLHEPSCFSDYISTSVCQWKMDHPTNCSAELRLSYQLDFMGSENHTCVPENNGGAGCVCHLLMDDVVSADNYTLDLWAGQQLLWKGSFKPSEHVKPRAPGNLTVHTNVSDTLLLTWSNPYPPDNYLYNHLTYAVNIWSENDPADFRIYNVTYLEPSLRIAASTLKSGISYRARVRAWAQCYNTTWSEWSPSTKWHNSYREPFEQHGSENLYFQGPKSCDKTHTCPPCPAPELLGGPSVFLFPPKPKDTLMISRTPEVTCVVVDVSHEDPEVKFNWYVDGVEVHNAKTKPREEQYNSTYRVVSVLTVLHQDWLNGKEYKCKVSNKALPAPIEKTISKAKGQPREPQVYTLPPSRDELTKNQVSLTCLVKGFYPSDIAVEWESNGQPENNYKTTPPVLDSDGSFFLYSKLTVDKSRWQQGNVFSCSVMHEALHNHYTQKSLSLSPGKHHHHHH

[11] = biological target: Murine IL4R-ECD_C-HuFc_His6 (processed) (murine); experiment: Western blot, non-reducing
Murine IL4R-ECD_C-HuFc_His6 (processed) (murine), sequence (chain, as listed by the source limits assumed): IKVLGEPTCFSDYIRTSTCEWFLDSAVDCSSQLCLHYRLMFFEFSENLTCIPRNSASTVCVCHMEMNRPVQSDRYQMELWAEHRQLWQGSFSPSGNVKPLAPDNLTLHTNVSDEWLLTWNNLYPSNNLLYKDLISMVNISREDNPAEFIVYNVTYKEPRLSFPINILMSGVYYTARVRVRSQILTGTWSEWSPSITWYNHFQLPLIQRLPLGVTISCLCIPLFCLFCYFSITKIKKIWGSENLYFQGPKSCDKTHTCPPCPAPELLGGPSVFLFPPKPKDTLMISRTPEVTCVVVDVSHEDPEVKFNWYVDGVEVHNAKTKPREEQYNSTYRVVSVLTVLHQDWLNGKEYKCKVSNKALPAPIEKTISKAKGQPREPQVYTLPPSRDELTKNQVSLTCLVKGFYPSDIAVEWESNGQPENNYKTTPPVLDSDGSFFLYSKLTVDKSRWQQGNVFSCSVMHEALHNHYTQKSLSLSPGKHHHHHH

[12] = biological target: Human IL4R-ECD_C-HuFc_His6 (processed) (human); experiment: Western blot, non-reducing
[13] = biological target: Equine IL4R-ECD_C-HuFc_His6 (processed) (equine); experiment: Western blot, non-reducing
Equine IL4R-ECD_C-HuFc_His6 (processed) (equine), sequence (chain, as listed by the source limits assumed): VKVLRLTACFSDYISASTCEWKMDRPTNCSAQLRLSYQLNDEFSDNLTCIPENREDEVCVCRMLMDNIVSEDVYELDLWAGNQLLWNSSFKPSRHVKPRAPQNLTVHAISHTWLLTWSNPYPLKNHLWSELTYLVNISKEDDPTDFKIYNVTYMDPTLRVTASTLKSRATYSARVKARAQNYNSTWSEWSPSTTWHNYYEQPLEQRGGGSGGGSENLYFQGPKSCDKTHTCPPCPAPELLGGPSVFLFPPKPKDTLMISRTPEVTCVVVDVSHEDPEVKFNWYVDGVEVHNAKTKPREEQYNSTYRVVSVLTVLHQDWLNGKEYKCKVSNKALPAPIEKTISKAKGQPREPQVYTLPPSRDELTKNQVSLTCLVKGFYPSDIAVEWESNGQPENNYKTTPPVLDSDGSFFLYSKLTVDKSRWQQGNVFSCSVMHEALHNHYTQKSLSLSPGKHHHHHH

[14] = biological target: Feline IL4R-ECD_C-HuFc_His6 (processed) (feline); experiment: BLI (Octet), biotinylated feline IL4R-ECD_C-HuFc_His6 on streptavidin tips, antibody 25 µg/mL, 1:1 fit
Feline IL4R-ECD_C-HuFc_His6 (processed) (feline), sequence (chain, as listed by the source limits assumed): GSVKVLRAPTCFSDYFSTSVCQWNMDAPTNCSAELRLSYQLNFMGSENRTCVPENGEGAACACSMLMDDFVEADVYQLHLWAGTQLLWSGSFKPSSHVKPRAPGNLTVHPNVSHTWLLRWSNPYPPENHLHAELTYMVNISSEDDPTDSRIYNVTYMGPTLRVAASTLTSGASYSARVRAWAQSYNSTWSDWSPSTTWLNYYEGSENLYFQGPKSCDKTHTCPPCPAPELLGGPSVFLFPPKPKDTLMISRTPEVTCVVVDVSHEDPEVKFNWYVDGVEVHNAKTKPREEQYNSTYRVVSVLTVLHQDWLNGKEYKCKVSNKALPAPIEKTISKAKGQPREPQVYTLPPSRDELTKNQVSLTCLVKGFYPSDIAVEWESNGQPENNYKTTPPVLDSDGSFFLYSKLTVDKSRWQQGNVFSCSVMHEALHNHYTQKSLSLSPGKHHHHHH
Experimental: This finding was consistent with in vitro binding affinity measured by Octet Biosensor. Biotinylated feline IL4R-ECD_C-HuFc_His6 (SEQ ID NO: 111) was captured on streptavidin sensor tips. The association of Clone I antibody (25 μg/mL) and feline IL4R-ECD_C-HuFc_His6 was monitored for 600 seconds. Dissociation was monitored for 600 seconds. A buffer only blank curve was subtracted to correct for any drift. The data were fit to a 1:1 binding model using ForteBio™ data analysis software to determine the kₒₙ, koff, and the Kd. The buffer for dilutions and all binding steps was 20 mM phosphate, 150 mM NaCl, pH 7.2.

B1: caninized M9 antibody, variable HC v1 with variant canine IgG-B (C1q-, CD16-) and variable LC v1 with canine kappa (antibody, V domains shown)
VH: EVQLVESGGDLVKPGGSLRLSCAASGFTFSSFGMHWVRQAPGKGLEWVAYIRSDSSTIYYADAVKGRFTISRDNAKNTLYLQMNSLRAEDTAMYYCARSGYYGSFSLTYWGQGTLVTVSS
VL: DIMLTQTPLSLSVSPGEPASISCSASSSVSSNYLHWYLQKAGQSPRLLIYRTSNLPSGVPDRFSGSGSGTDFTLRIGRVEAEDAGIYYCQQGSGMLTFGQGTRLEVRR
notes: also called caninized M9 HC v1 / LC v1
Kd [1]: ≤ 1 nM

B5: murine-canine chimeric M5 antibody (canine IgG-B, canine kappa) (antibody, V domains shown)
VH: QVQLKESGPGLVAPSQSLSITCTVSGFSLSRYSVHWVRQPPGKGLEWLGMIWGGGSTDYNSVFKSRLSISKDNSKSQVFLKMNSLQTDDTAMYYCARTYRGYALDYWGQGTSVTVSS
VL: DIQMTQTTSSLSASLGDRVTISCRASQDISNYLNWYQQKPDGTVKLLIYYTSRLQSGVPSRFSGSGSGTDYCLTISNLEQEDIATYFCQQANTLPLTFGSGTKLELK
notes: also called chimeric canine IgG-B (M5)
Kd [5]: < 10 nM

B6: M5 mouse monoclonal antibody (antibody, V domains shown)
VH: B5 VH
VL: B5 VL
notes: Mouse antibody purified from hybridoma culture; also called Clone M5
Kd [2]: < 10 nM

B8: Clone I mouse monoclonal antibody (antibody, mouse IgG1, kappa, V domains shown)
VH: EVQLQQSGPELVKPGASVKMSCKASGYTFTSYVMHWVKQKPGQGLEWIGYINPNNDGTFYNGKFKGKATLTSDKSSSTAYMELSSLTSEDSAVYYCAAFYYGFAYWGQGTLVTVSA
VL: DIVLTQSPSSLSASLGERVSLTCRASQEISGYLSWLQQKPDGTIKRLIYAASTLDSGVPKRFSGSRSGSDFSLTISSLESEDFADYYCLQYASYPWTFGGGAKLEIKR
notes: also called Clone I antibody; anti-IL4R-mAb Clone I
binding result [8]: binds
binding result [9]: binds
binding result [10]: binds
binding result [11]: no binding (tested: Clone I 0.3 µg/mL; 0.1 µg/lane)
binding result [12]: no binding (tested: Clone I 0.3 µg/mL; 0.1 µg/lane)
binding result [13]: no binding (tested: Clone I 0.3 µg/mL; 0.1 µg/lane)
Kd [14]: 1.1 nM

B9: caninized M3 antibody, variable HC v1 with variant canine IgG-B (C1q-, CD16-) and variable LC v1 with canine kappa (antibody, V domains shown)
VH: EVQLVESGGDLVKPAGSLRLSCTVSGFSLSRYSVHWVRQAPGKGLEWLGMIWGGGSTDYNSVVKGRFTISRDNAKNTVYLQMNSLRAEDTAMYYCARTYRGYALDYWGQGTLVTVSS
VL: DIVMTQTPLSLSVSPGEPASISCRASQDISNYLNWYLQKAGQSPRLLIYYTSRLQSGVPDRFSGSGSGTDFTLRIGRVEAEDAGIYFCQQANTLPLTFGQGTRLEVRR
notes: also called caninized M3 HC v1 / LC v1
Kd [1]: ≤ 1 nM

B10: caninized M3 antibody, variable HC v2 with variant canine IgG-B (C1q-, CD16-) and variable LC v1 with canine kappa (antibody, V domains shown)
VH: ELTLQESGPGLVKPSQTLSLTCTVSGFSLSRYSVHWIRQPRGRGLELLGMIWGGGSTDYNPAFQGRISITADTAKNQFSLQLSSMTTEDTAVYYCARTYRGYALDYWGQGTLVTVSS
VL: B9 VL
notes: also called caninized M3 HC v2 / LC v1
Kd [1]: ≤ 1 nM

B11: M8 mouse monoclonal antibody (antibody, V domains shown)
VH: QVQLQQSGPELVKPGALVKISCKASGYTFTSYDINWVKQRPGQGLEWIGWIYPGDGSTKYNEKFKGKATLTADKSSSTAYMQLSSLTSEDSAVYFCARSSFVVWGAGTTVTVSS
VL: DIQMTQSSSYLSVSLGGRVTITCKASDPINNWLAWYQQKPGNAPRLLISGATSLETGVPSRISGSGSGKDYSLSITSLQTEDIATYYCHQYWSIPYTFGGGTKLEIK
notes: Mouse antibody purified from hybridoma culture; also called Clone M8
Kd [2]: < 10 nM
binding result [3]: binds
binding result [4]: no binding

B13: M9 mouse monoclonal antibody (antibody, V domains shown)
VH: DVQLVESGGGLVQPGGSRKLSCAASGFTFSSFGMHWVRQAPEKGLEWVAYIRSDSSTIYYADTVKGRFTISRDNPKNTLFLQMTSLRSEDTAMYYCARSGYYGSFSLTYWGQGTLVTVSA
VL: EIVLTQSPTTMAASPGEKITITCSASSSVSSNYLHWYQQKPGFSPKLLIYRTSNLPSGVPARFFGSGSGTSYSLTIGTMEAEDVATYYCQQGSGMLTFGAGTKLELK
notes: Mouse antibody purified from hybridoma culture; also called Clone M9
Kd [2]: < 10 nM
binding result [3]: binds
binding result [4]: no binding

Now from value to binder:

Kd [1]: ≤ 1 nM
B2: caninized M9 antibody, variable HC v2 with variant canine IgG-B (C1q-, CD16-) and variable LC v1 with canine kappa (antibody, V domains shown)
VH: B1 VH with A23V, E46Q
VL: B1 VL
notes: also called caninized M9 HC v2 / LC v1

Kd [2]: < 10 nM
binding result [3]: binds
binding result [4]: no binding
B3: M3 mouse monoclonal antibody (antibody, V domains shown)
VH: B5 VH
VL: B5 VL
notes: Mouse antibody purified from hybridoma culture; also called Clone M3

Kd [5]: < 10 nM
B4: murine-canine chimeric M3 antibody (canine IgG-B, canine kappa) (antibody, V domains shown)
VH: B5 VH
VL: B5 VL
notes: also called chimeric canine IgG-B (M3)

Kd [6]: 2.03 nM
Kd [7]: ~0.1 nM
B7: Clone B mouse monoclonal antibody (antibody, mouse IgG1, kappa, V domains shown)
VH: B8 VH with Q3K, Q5E, Q6E, N54K, Y100N, F103I, A116S
VL: IVLTQTPSSLSASLGERVSLTCRASQEISGYLSWLQQKPDGTIKRLIYAASTLDSGVPKRFSGSRSGSDFSLTISSLESEDFADYYCVQYASYPWTFGGGARLEIKR
notes: also called Clone B antibody; anti-IL4R-mAb Clone B

Kd [5]: < 10 nM
B12: murine-canine chimeric M8 antibody (canine IgG-B, canine kappa) (antibody, V domains shown)
VH: B11 VH
VL: B11 VL
notes: also called chimeric canine IgG-B (M8)

Kd [5]: < 10 nM
B14: murine-canine chimeric M9 antibody (canine IgG-B, canine kappa) (antibody, V domains shown)
VH: B13 VH
VL: B13 VL
notes: also called chimeric canine IgG-B (M9)
